Reference: patent US12410234B2, “Compositions and methods for retrieving tumor-related antibodies and antigens” (THE TRUSTEES OF THE UNIVERSITY OF PENNSYLVANIA, priority 2018, dated 2025)

Legend:
[1] = tested on: human pancreatic neuroendocrine tumor (PNET) samples; experiment: Flow cytometry binding of VHH1 to human PNET biopsy samples; conditions: four fresh samples via biopsy from liver
human full length CDH17 = target: T1, human full length CDH17 (Homo sapiens, UniProt Q12864); experiment: Flow cytometry of VHH1 phage on HEK293T cells transfected with human CDH17; type: binding; conditions: screen of ~3000 cell surface proteins
T1 construct: expressed in transfected cells; host or cells: HEK293T
T1 sequence (Q12864 23-832): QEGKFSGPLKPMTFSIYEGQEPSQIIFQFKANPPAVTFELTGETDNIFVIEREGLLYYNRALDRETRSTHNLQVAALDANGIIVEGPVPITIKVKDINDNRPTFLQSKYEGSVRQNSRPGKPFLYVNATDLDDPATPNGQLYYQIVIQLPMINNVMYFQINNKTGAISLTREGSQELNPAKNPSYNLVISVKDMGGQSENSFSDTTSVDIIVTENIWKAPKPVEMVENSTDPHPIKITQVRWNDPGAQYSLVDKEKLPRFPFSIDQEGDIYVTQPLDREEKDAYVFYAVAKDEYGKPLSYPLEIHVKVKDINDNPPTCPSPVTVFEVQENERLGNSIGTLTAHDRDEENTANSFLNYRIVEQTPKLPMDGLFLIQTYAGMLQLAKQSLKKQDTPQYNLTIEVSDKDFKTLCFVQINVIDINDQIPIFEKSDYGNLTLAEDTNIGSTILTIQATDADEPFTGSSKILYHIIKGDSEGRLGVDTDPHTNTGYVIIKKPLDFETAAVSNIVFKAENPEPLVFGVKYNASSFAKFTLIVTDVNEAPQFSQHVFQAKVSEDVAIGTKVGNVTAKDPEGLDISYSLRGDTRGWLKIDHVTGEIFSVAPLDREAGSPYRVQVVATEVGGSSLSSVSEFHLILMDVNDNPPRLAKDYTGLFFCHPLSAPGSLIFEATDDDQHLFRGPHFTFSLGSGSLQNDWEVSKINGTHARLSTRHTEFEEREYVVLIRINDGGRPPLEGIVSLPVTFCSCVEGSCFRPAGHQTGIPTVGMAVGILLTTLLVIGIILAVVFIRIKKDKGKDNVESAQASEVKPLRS
Excerpt: (§1) FIGS. 12A-12D are a series of graphs and images depicting isolation of VHH1 from a llama-derived […] antibody phage display naive library by panning to BON cells, as described in FIG. 1A. VHH1 was isolated from phage library and specifically bound human neuroendocrine tumor (NET) BON cells in vitro, but not other tumor cells such as breast cancer cells or leukemia cells, by positive or negative pannings, as illustrated in FIG. 1. […] FIG. 12B depicts the antigen of VHH1 is CDH17 (through DNA sequencing individual phage clones that specifically bound BON cells), as identified by screening the transfected cells. Flow analysis of VHH1 binding to CDH17 overexpressed in 293 cells is shown.
(§2) Next, to identify the protein antigen of the isolated VHH1 nanobody, ˜3000 human cell membrane protein cDNAs were prepared and transfected into HEK293T cells individually, followed by flow cytometry analysis with the VHH1-expressing phage and FITC-labeled secondary antibody against phage M13 protein (FIG. 12A). […] Human or mouse CDH17 cDNA was transiently transfected into HEK293T cells, followed by flow cytometry analysis with the VHH1-expressing phage and FITC-labeled secondary antibody against phage M13 protein.

EC1 domain of CDH17 [2] = target: T2, EC1 domain of CDH17 (Homo sapiens, UniProt Q12864); experiment: Flow analysis of VHH1 on CDH17 truncations in HEK293T cells; type: binding
T2 construct: expressed in transfected cells; host or cells: HEK293T
T2 sequence (Q12864 23-832): T1 sequence (Q12864 23-832)
Excerpt: (§3) FIGS. 22A-22C are series of images and graphs depicting that the VHH1 binds to the EC1 domain of CDH17. FIG. 22A is a schema showing human CDH17 truncations. […] FIG. 22C is a schematic diagram of CDH17 structure showing VHH1 binds to the N-terminal EC1 domain of CDH17.
(§4) In order to further confirm the antigen of VHH1 is CDH17, several CDH17 internal truncations were constructed. The truncations were transfected into HEK293T cells. […] Additionally, several CDH17 internal truncations were constructed (FIG. 22A) and transfected into HEK293T cells. Flow cytometry analysis was performed with the purified VHH1 nanobody and APC labeled anti-HA secondary antibody against HA on VHH1 nanobody. […] CDH17, a cell adhesion protein highly expressed in human NETs. CDH17 is a cell adhesion protein highly expressed in human NETs. […] One nanobody, named VHH1 was identified that specifically binds to CDH17 protein. […] VHH1 was sequenced and confirmed to contain the conserved VHH sequence (FIG. 14).

EC1 domain of CDH17 [3] = experiment: as above; type: binding, human
Excerpt: as §3, §4

BT474 cells = experiment: Flow cytometry binding of VHH1 to BT474 cells; parameters: species or system human
mouse CDH17 = target: T3, mouse CDH17 (Mus musculus, UniProt Q9R100); experiment: Flow cytometry of VHH1 phage on HEK293T cells transfected with mouse CDH17; type: binding; conditions: transiently transfected HEK293T
T3 construct: expressed in transfected cells; host or cells: HEK293T
T3 sequence (Q9R100 26-827): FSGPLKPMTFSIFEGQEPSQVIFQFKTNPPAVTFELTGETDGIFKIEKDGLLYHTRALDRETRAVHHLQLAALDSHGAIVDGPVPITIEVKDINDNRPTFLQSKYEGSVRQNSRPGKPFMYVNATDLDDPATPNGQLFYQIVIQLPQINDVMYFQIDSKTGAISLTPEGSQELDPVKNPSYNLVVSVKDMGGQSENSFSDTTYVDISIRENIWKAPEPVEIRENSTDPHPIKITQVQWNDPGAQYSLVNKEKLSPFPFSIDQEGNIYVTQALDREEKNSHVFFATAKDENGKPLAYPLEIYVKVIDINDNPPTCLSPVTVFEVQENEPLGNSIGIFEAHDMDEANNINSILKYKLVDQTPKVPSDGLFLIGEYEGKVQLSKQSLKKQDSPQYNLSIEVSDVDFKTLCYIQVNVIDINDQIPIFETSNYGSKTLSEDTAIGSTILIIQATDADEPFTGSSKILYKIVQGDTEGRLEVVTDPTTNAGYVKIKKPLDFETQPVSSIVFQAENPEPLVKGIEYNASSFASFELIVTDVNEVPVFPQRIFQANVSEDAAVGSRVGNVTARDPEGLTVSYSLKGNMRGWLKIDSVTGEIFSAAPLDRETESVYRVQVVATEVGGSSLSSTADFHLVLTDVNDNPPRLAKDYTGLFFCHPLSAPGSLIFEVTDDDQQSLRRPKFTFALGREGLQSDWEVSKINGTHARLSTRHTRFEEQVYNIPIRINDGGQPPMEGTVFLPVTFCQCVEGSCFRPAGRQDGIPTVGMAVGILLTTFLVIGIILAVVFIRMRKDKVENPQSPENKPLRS
Excerpt: as §1, §2

BON cells [4] = experiment: Flow cytometry binding of VHH1 to BON cells; parameters: species or system human
NT-3 cells = experiment: Flow analysis of VHH1 binding to NT-3 cells; parameters: species or system human
BON cells [5] = experiment: Flow cytometry binding of VLV or VLV-DM1 to BON cells; parameters: species or system human
Protocol: (§5) Scale bar: […]. […] Scale bar: […].

BON cells [6] = experiment: In vitro killing of BON cells by ADC (MTT assay)
QGP1 cells = experiment: Flow cytometry binding of VLV or VLV-DM1 to QGP1 cells
Protocol: as §5

[7] = tested on: CDH17-negative QGP1 cells; experiment: In vitro killing of QGP1 cells by ADC (MTT assay); type: cell-based; conditions: cytotoxicity assay
Protocol: as §5

THP-1 cells = experiment: Killing assay of Nb157-PNE-mediated sCAR system; type: cell-based, human; conditions: sCAR T to THP-1 2:1, 16 hours
Excerpt: (§6) FIGS. 6A-6H are series of images and graphs depicting that Nb switch-activated CAR T cells eradicate AML in vivo in a controllable manner. FIGS. 6A-6B: Schematic diagram of switchable CAR T system. The Nb157 was expressed and purified by fusing with PNE, a fourteen amino acid peptide, either at N terminal or C terminal of the Nanobody. Primary human T cells were engineered by lentivirus transduction of scFv CAR that recognized PNE specifically. FIG. 6C: Test the affinity of Nb157, Nb157-N-PNE or Nb157-C-PNE against THP-1 cells by flow cytometry analysis. FIG. 6D: Killing assay of Nb157-PNE-mediated sCAR system against THP-1 cells in series of switch concentrations. The ratio of sCAR T to THP-1 was 2:1 and assay was performed after 16 hours incubation. FIG. 6E: 10 million THP-1 cells were transplanted into NSG mice subcutaneously to form the 150 mm^3 of tumors. […] The engraftment volumes were monitored by measuring the lengths and widths of the tumors. […] The primary leukemia or CAR T cells in the mouse peripheral blood were monitored by staining with CD33 or CD3 fluorescence labeled antibodies.
Killing assays were performed as previously described (Cao, L. F. et al. (2010) Cytometry A 77, 534-545). […] Quantification were calculated by either Countbright beads or volume.

THP-1 tumors = experiment: sCAR T plus Nb switch in THP-1 xenograft NSG mice; type: in vivo; conditions: with sCAR T cells
Excerpt: as §6
To determine whether the inducible switch, in concert with the sCAR T cells, can kill tumor in mice, THP-1 cells were transplanted into NSG mice subcutaneously to form tumors. […] It was determined whether resumption of the Nb157 switch injection suppress the tumor growth again. […]

[8] = tested on: patient-derived AML cells; experiment: sCAR T plus Nb switch in patient-derived AML NSG mice; type: in vivo; conditions: sCAR T cells plus switch compared to sCAR T cell alone
Excerpt: as §6, with “concentrations.” for “concentrations. The ratio of sCAR T to THP-1 was 2:1 and assay was performed after 16 hours incubation. FIG. 6E: 10 million THP-1 cells were transplanted into NSG mice subcutaneously to form the 150 mm^3 of tumors.”
It was explored whether the switch CAR system can also suppress primary AML cells in mice. To this end, patient-derived AML cells were injected into the NSG mice to build leukemic mice model as determined by detection of the human CD33+ AML cells in the peripheral blood of the recipient mice (FIG. 6G). […] The appearance of CD33+ AML cells or CD3+ T cells in peripheral blood were monitored by flow cytometry analysis weekly.

B1: VHH1: llama nanobody binding the EC1 domain of CDH17, SEQ ID NO: 2 (protein)
VHH: QVQLQESGGGLVQPGGSTRLSCVSSRTFSYYDMGWFRQAPGKEREFVALLSWNGENAEYSDSVMGRFTVSRGNTQNSVNLQMNNLKPEDTGIYYCAVTHGGARSVRSWGQGTQVTVSS
modifications: VHH1 nanobody
binding to human PNET samples [1]: robustly bound by VHH1 | binding to human CDH17 (human full length CDH17): only bound to human full length CDH17 | binding domain on CDH17 (EC1 domain of CDH17 [2]): binds to the EC1 domain at the N-terminal part of CDH17 | binding to EC1 domain deleted truncation Del-1 (EC1 domain of CDH17 [3]): completely lost the function to interact with VHH1 nanobody | binding to BT474 cells (BT474 cells): cannot be bound by VHH1 | binding to mouse CDH17 (mouse CDH17): bound both human and mouse CDH17 | binding to BON cells (BON cells [4]): can be bound by VHH1 | binding to NT-3 cells (NT-3 cells): robustly bound by VHH1

B2: VLV-DM1 (conjugate)
VHH 1: B1 VHH
VHH 2: B1 VHH
modifications: left off: things letters cannot carry; small tags and cut ends
binding to BON cells (BON cells [5]): bound to BON cells, albeit with slightly reduced affinity | lysis of BON cells (morphology) (BON cells [6]; at 4 nM, microscopic observation): lysed the BON cells | killing of BON cells (BON cells [6]; cytotoxicity assay): significantly killed BON cells | binding to QGP1 cells (QGP1 cells): but not QGP1 cells | killing of QGP1 cells [7]: but not CDH17-negative QGP1 cells

B3: Nb157-C-PNE: Nb157 with C-terminal PNE, a fourteen amino acid peptide; inducible nanobody switch (protein)
chain: AAQAAQVQLQESGGGLVQPGGSLSLSCTASGFTFSSYSMAWVRQAPGKGPEWVSGIYPSDGKTRYADFVKGRFSISRDNAKNMLYLQMNNLEPEDTALYYCARGITGLGPRGQGTQVTVSSAA
modifications: left off: small tags and cut ends
notes: Nb157 with C-terminal PNE, a fourteen amino acid peptide; inducible nanobody switch
switch-triggered killing of THP-1 cells by sCAR T cells (THP-1 cells): potently triggered the killing of THP-1 cells by the sCAR T cells | tumor growth, THP-1 xenograft (THP-1 tumors; first five times of switch injection): significantly slowed down growth | tumor size (THP-1 tumors; switch restarted from day 21, day 52): almost undetectable | survival (Kaplan Maier) [8]: significantly protected the leukemic mice from dying
